From patent US20230340111A1 (published 2023)

Molecular target: T1, human FOLR1 expressed on SKOV-3 ovarian carcinoma cells (human, UniProt P15328 25-234)
T1 construct: Naturally expressed receptor on SKOV-3 cells; also called human FOLR1pos SKOV-3 cancer cells; human FOLR1-expressing cell line SKOV-3
Assay: saturation binding of 99mTc-labelled His6-tagged VHH on SKOV-3 cells (0-300 nM); non-specific binding by 100-fold unlabelled VHH
Procedure: After quality control (> 95%), human FOLR1^pos SKOV-3 cancer cells were incubated with serial dilutions with concentrations ranging from 0 to 300 nM of the different ^99mTc-labelled VHHs. A 100-fold excess of the corresponding unlabeled VHH was added in parallel to saturate the human FOLR1 receptors expressed on cancer cells, to assess non-specific binding.

T1 sequence (P15328 25-234 limits assumed): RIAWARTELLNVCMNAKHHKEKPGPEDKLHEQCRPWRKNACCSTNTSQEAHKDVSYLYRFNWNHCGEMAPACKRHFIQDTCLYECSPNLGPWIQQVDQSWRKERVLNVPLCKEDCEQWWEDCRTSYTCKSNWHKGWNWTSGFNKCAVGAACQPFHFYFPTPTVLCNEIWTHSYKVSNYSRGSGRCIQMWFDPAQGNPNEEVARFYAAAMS

Binder | EC50 [nM]
99mTc-labeled His6-tagged VHH A5 (VHH, [99mTc(H2O)3(CO)3] at the His6-tail, also called 99mTc-A5) VHH: DVQLVESGGGLVQAGGSLRLSCGVSGNIFSMNLMGWYRQPPGKEREWVALITKDGSTNYEDSVKGRFTISRDNAKNTVSLQMNSLKPEDTAVYYCNAQDGSGWIRAWGWDWGQGTQVTVSS | 28.6
99mTc-labeled His6-tagged VHH A4 (VHH, [99mTc(H2O)3(CO)3] at the His6-tail, also called 99mTc-A4) VHH: DVQLVESGGGLARAGGSLRLSCAASGRAFSSTYAMGWFRQAPGKEREFVADINWSEGSPMYIDSVKDRFTISRDNARNSLYLQMNSLKSEDTAVYYCAARRFGQGYEYWGQGTQVTVSS | 3.8
99mTc-labeled His6-tagged VHH A3 (VHH, [99mTc(H2O)3(CO)3] at the His6-tail, also called 99mTc-A3) VHH: DVQLVESGGGLVQAGGSLRLSCGVSGNMFSMNLMGWYRQPPGKERDWVAVITKDGSTNYADSVKGRFTISRDNAKNTVSLQMNSLKPEDTAVYYCNVQDGSGWIRAWGWDWGQGTQVTVSS | 3.3
99mTc-labeled His6-tagged VHH A1 (VHH, [99mTc(H2O)3(CO)3] at the His6-tail, also called 99mTc-A1; 99mTc-VHH A1) VHH: DVQLVESGGGLVQPGGSLRLSCAASESIFSRNHMSWYRQAPGKQRELAAIITSDGNTNYPDSVKGRFTISRDNAKNTVYLQMNSLKPEDTAVYYCNTFGRSVAGFYDYWGQGTQVTVSS | 1
99mTc-labeled His6-tagged VHH A2 (VHH, [99mTc(H2O)3(CO)3] at the His6-tail, also called 99mTc-A2; 99mTc-VHH A2) VHH: DVQLVESGGGLVQAGGSLRLSCAADEMKFSNYDLAWYRRAPGKQRELAAIITSGGSTNYPDSVKGRFTISRDNAKNTVYLEMNSLKPEDTAVYYCNALRPWPQFSDYWGQGTQVTVSS | 1.1

Molecular target: T2, human FOLR1 recombinant protein (extracellular domain of human folate receptor alpha) (human, UniProt P15328 25-233)
T2 construct: Bought recombinant protein (Sino Biological); also called hFOLR1; FR-alpha
T2 sequence (P15328 25-233): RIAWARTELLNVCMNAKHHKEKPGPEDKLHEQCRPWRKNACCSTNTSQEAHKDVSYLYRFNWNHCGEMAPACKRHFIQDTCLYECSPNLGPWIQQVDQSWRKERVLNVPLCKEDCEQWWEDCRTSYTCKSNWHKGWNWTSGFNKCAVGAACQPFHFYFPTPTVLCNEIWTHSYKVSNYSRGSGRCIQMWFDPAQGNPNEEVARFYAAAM
Assay: SPR (Biacore T200), single cycle kinetics, human FOLR1 immobilized on CM5, untagged VHH as analyte, 1:1 fit
Procedure: The antigen-binding kinetic parameters of untagged, purified VHH A1 and A2 variants were determined by surface plasmon resonance on immobilized human FOLR1 recombinant protein with a Biacore T200 instrument (GE Healthcare). The human FOLR1 recombinant protein (Sino Biological) was immobilized in 10 mM sodium acetate, pH 5.5 on a CM5 chip (GE Healthcare) via amine coupling chemistry to 250 RU. VHHs were analyzed using single cycle kinetics with a threefold serial dilution in HBS (5 nM-0.062 nM) and an analyte flow rate of 40 µl/min. The association phase took 5× 450 s and the dissociation phase 900 s. Regeneration was done by a single injection of 50 mM glycine-HCl, pH 2.5, 2 M MgCl₂ for 30 s at 30 µl/min, followed by 120 s stabilization. Binding curves were fitted using a ‘1:1 (antigen:analyte)’ binding model in Biacore T200 evaluation software.

Binder | Kd [nM] | koff [s⁻¹] | kon [M⁻¹ s⁻¹]
untagged N64E variant of VHH A1 (VHH, also called A1-N64E) VHH: DVQLVESGGGLVQPGGSLRLSCAASESIFSRNHMSWYRQAPGKQRELAAIITSDGETNYPDSVKGRFTISRDNAKNTVYLQMNSLKPEDTAVYYCNTFGRSVAGFYDYWGQGTQVTVSS | 0.092 | 0.00017 | 1.8e+06
untagged D59E variant of VHH A1 (VHH, also called A1-D59E) VHH: DVQLVESGGGLVQPGGSLRLSCAASESIFSRNHMSWYRQAPGKQRELAAIITSEGNTNYPDSVKGRFTISRDNAKNTVYLQMNSLKPEDTAVYYCNTFGRSVAGFYDYWGQGTQVTVSS | 0.083 | 0.00019 | 2.3e+06
untagged N64Q variant of VHH A1 (VHH, also called A1-N64Q) VHH: DVQLVESGGGLVQPGGSLRLSCAASESIFSRNHMSWYRQAPGKQRELAAIITSDGQTNYPDSVKGRFTISRDNAKNTVYLQMNSLKPEDTAVYYCNTFGRSVAGFYDYWGQGTQVTVSS | 0.036 | 8.2e-05 | 2.3e+06
untagged N64S variant of VHH A1 (VHH, also called A1-N64S) VHH: DVQLVESGGGLVQPGGSLRLSCAASESIFSRNHMSWYRQAPGKQRELAAIITSDGSTNYPDSVKGRFTISRDNAKNTVYLQMNSLKPEDTAVYYCNTFGRSVAGFYDYWGQGTQVTVSS | 0.057 | 0.00014 | 2.5e+06
untagged E90Q variant of VHH A2 (VHH, also called A2-E90Q) VHH: DVQLVESGGGLVQAGGSLRLSCAADEMKFSNYDLAWYRRAPGKQRELAAIITSGGSTNYPDSVKGRFTISRDNAKNTVYLQMNSLKPEDTAVYYCNALRPWPQFSDYWGQGTQVTVSS | 0.25 | 0.0006 | 2.3e+06
untagged K29Q-E90Q variant of VHH A2 (VHH, also called A2-K29Q-E90Q) VHH: DVQLVESGGGLVQAGGSLRLSCAADEMQFSNYDLAWYRRAPGKQRELAAIITSGGSTNYPDSVKGRFTISRDNAKNTVYLQMNSLKPEDTAVYYCNALRPWPQFSDYWGQGTQVTVSS | 0.27 | 0.00048 | 1.8e+06
untagged K29R-E90Q variant of VHH A2 (VHH, also called A2-K29R-E90Q) VHH: DVQLVESGGGLVQAGGSLRLSCAADEMRFSNYDLAWYRRAPGKQRELAAIITSGGSTNYPDSVKGRFTISRDNAKNTVYLQMNSLKPEDTAVYYCNALRPWPQFSDYWGQGTQVTVSS | 0.29 | 0.00053 | 1.9e+06
untagged M28A-E90Q variant of VHH A2 (VHH, also called A2-M28A-E90Q) VHH: DVQLVESGGGLVQAGGSLRLSCAADEAKFSNYDLAWYRRAPGKQRELAAIITSGGSTNYPDSVKGRFTISRDNAKNTVYLQMNSLKPEDTAVYYCNALRPWPQFSDYWGQGTQVTVSS | 0.81 | 0.0016 | 2e+06
untagged M28T-E90Q variant of VHH A2 (VHH, also called A2-M28T-E90Q; A2-M28TE90Q) VHH: DVQLVESGGGLVQAGGSLRLSCAADETKFSNYDLAWYRRAPGKQRELAAIITSGGSTNYPDSVKGRFTISRDNAKNTVYLQMNSLKPEDTAVYYCNALRPWPQFSDYWGQGTQVTVSS | 0.56 | 0.0013 | 2.3e+06

Molecular target: T1, human FOLR1 expressed on SKOV-3 ovarian …
Assay: cellular retention on SKOV-3 cells: 10 nM 131I-VHH 1 h at 4 C, then up to 24 h at 37 C; membrane-bound plus internalized fraction
Procedure: The in vitro cellular retention of the different His₆- and untagged ¹³¹I-labeled VHHs was assessed on the same cancer cells. In this particular case, human FOLR1^pos SKOV-3 cancer cells were incubated with 10 nM ¹³¹I-labelled VHHs for 1h at 4° C., after which the unbound fraction was collected. A 100-fold excess of the corresponding unlabeled VHH to assess non-specific binding. Next, the cells were incubated with fresh medium up to 24 h at 37° C., after which the dissociated fraction was collected. Afterwards, the cells were washed with 0.05 M glycine pH 2.8 to collect the membrane-bound fraction. Finally, cells were solubilized with 1 M NaOH at room temperature to collect the internalized fraction. The sum of the membrane-bound and internalized fractions corresponds to the total cell-associated fraction.

Binder | cell-associated fraction of initial bound activity after 24 h [%]
131I-labeled untagged VHH A2 (VHH, [131I]SGMIB conjugated to lysine side-chain amine groups) VHH: DVQLVESGGGLVQAGGSLRLSCAADEMKFSNYDLAWYRRAPGKQRELAAIITSGGSTNYPDSVKGRFTISRDNAKNTVYLEMNSLKPEDTAVYYCNALRPWPQFSDYWGQGTQVTVSS | ~60

Molecular target: T1, human FOLR1 expressed on SKOV-3 ovarian …
Assay: saturation binding of 131I-labelled untagged VHH on SKOV-3 cells
Procedure: In a first part, their in vitro behaviour was assessed by means of investigating their cellular binding and retention over time. The binding potential of the resulting radioconjugates was assessed to confirm that this was not affected by the introduction of ¹³¹I-SGMIB into the amino acid sequence of the different VHHs. To this, human FOLR1^pos SKOV-3 cancer cells were incubated with serial dilutions with concentrations ranging from 0 to 300 nM of the different ¹³¹I-labelled, His₆ tagged VHHs. A 100-fold excess of the corresponding unlabeled VHH was added in parallel to saturate the human FOLR1 receptors expressed on cancer cells, to assess non-specific binding.
A1 and A2 parental untagged VHH’s and derivatives were radiolabeled with theranostic isotope ¹³¹I, as described in example 3, and subjected to saturation binding studies as described in example 6.

Binder | EC50 [nM]
131I-labeled untagged A1-D59E (VHH, [131I]SGMIB conjugated to lysine side-chain amine groups) VHH: DVQLVESGGGLVQPGGSLRLSCAASESIFSRNHMSWYRQAPGKQRELAAIITSEGNTNYPDSVKGRFTISRDNAKNTVYLQMNSLKPEDTAVYYCNTFGRSVAGFYDYWGQGTQVTVSS | 2.1
131I-labeled untagged A1-N64E (VHH, [131I]SGMIB conjugated to lysine side-chain amine groups) VHH: DVQLVESGGGLVQPGGSLRLSCAASESIFSRNHMSWYRQAPGKQRELAAIITSDGETNYPDSVKGRFTISRDNAKNTVYLQMNSLKPEDTAVYYCNTFGRSVAGFYDYWGQGTQVTVSS | 2.5
131I-labeled untagged A1-N64Q (VHH, [131I]SGMIB conjugated to lysine side-chain amine groups) VHH: DVQLVESGGGLVQPGGSLRLSCAASESIFSRNHMSWYRQAPGKQRELAAIITSDGQTNYPDSVKGRFTISRDNAKNTVYLQMNSLKPEDTAVYYCNTFGRSVAGFYDYWGQGTQVTVSS | 2.3
131I-labeled untagged A1-N64S (VHH, [131I]SGMIB conjugated to lysine side-chain amine groups) VHH: DVQLVESGGGLVQPGGSLRLSCAASESIFSRNHMSWYRQAPGKQRELAAIITSDGSTNYPDSVKGRFTISRDNAKNTVYLQMNSLKPEDTAVYYCNTFGRSVAGFYDYWGQGTQVTVSS | 0.9
131I-labeled untagged A2-E90Q (VHH, [131I]SGMIB conjugated to lysine side-chain amine groups) VHH: DVQLVESGGGLVQAGGSLRLSCAADEMKFSNYDLAWYRRAPGKQRELAAIITSGGSTNYPDSVKGRFTISRDNAKNTVYLQMNSLKPEDTAVYYCNALRPWPQFSDYWGQGTQVTVSS | 2.9
131I-labeled untagged A2-K29Q-E90Q (VHH, [131I]SGMIB conjugated to lysine side-chain amine groups) VHH: DVQLVESGGGLVQAGGSLRLSCAADEMQFSNYDLAWYRRAPGKQRELAAIITSGGSTNYPDSVKGRFTISRDNAKNTVYLQMNSLKPEDTAVYYCNALRPWPQFSDYWGQGTQVTVSS | 5.1
131I-labeled untagged A2-K29R-E90Q (VHH, [131I]SGMIB conjugated to lysine side-chain amine groups) VHH: DVQLVESGGGLVQAGGSLRLSCAADEMRFSNYDLAWYRRAPGKQRELAAIITSGGSTNYPDSVKGRFTISRDNAKNTVYLQMNSLKPEDTAVYYCNALRPWPQFSDYWGQGTQVTVSS | 3.6
131I-labeled untagged A2-M28A-E90Q (VHH, [131I]SGMIB conjugated to lysine side-chain amine groups) VHH: DVQLVESGGGLVQAGGSLRLSCAADEAKFSNYDLAWYRRAPGKQRELAAIITSGGSTNYPDSVKGRFTISRDNAKNTVYLQMNSLKPEDTAVYYCNALRPWPQFSDYWGQGTQVTVSS | 4.1
131I-labeled untagged A2-M28T-E90Q (VHH, [131I]SGMIB conjugated to lysine side-chain amine groups) VHH: DVQLVESGGGLVQAGGSLRLSCAADETKFSNYDLAWYRRAPGKQRELAAIITSGGSTNYPDSVKGRFTISRDNAKNTVYLQMNSLKPEDTAVYYCNALRPWPQFSDYWGQGTQVTVSS | 4.8
131I-labeled untagged VHH A2 (VHH, [131I]SGMIB conjugated to lysine side-chain amine groups) VHH: DVQLVESGGGLVQAGGSLRLSCAADEMKFSNYDLAWYRRAPGKQRELAAIITSGGSTNYPDSVKGRFTISRDNAKNTVYLEMNSLKPEDTAVYYCNALRPWPQFSDYWGQGTQVTVSS | 2.4
